Measurements: publication PMC4160250 (2014)
Residue numbers refer to the chain shown, from its start.

T1: UbP_C F195A (human, UniProt Q8WUN7 129-234, F195A)
T1 sequence: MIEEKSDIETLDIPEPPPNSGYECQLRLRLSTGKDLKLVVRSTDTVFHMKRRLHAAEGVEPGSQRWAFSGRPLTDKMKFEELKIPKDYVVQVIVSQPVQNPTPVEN

T2: UbP_C Q219A/I221A (human, UniProt Q8WUN7 129-234, Q219A | I221A)
T2 sequence: T1 sequence with A67F, Q91A, I93A

B1: USP5_UBA1 (first UBA domain of USP5, residues 631-692) (domain or fragment)
chain: MLDESVIIQLVEMGFPMDACRKAVYYTGNSGAEAAMNWVMSHMDDPDFANPLILPGSSGPGS
B2: UbP_C (C-terminal part of DC-UbP, residues 129-234), His-tagged (domain or fragment)
chain: T1 sequence with A67F

How the values were obtained:
Assay in all cases: NMR
UbP_C F195A = molecular target: T1, UbP_C F195A
UbP_C Q219A/I221A = molecular target: T2, UbP_C Q219A/I221A
[1] = molecular target: B1

Kd (UbP_C F195A) [mM]	Kd (UbP_C Q219A/I221A) [µM]	Kd [1] [µM]	Binder
> 3	770		B1
		800	B2
